In patent US20250304650A1:
Changes are numbered by the printed parent chain. In names and notes the source's numbering stands.

B1: anti-NGF feline IgG1a, Fc variant S434Y, S254K (antibody, part only; not given: anti-NGF variable domains, light chain, not shown: another chain or arm of the molecule; small tags and cut ends)
Fc: PPEMLGGPSIFIFPPKPKDTLSIKRTPEVTCLVVDLGPDDSDVQITWFVDNTQVYTAKTSPREEQFNSTYRVVSVLPILHQDWLKGKEFKCKVNSKSLPSPIERTISKAKGQPHEPQVYVLPPAQEELSRNKVSVTCLIKSFHPPDIAVEWEITGQPEPENNYRTTPPQLDSDGTYFVYSKLSVDRSHWQRGNTYTCSVSHEALHYHHTQKSLTQSPGK
B2: anti-NGF feline IgG1a, Fc variant S428L, E380T, S434R (antibody, part only; not given: anti-NGF variable domains, not shown: another chain or arm of the molecule; small tags and cut ends)
Fc: B1 Fc with K24S, E150T, S200L, Y206R
B3: anti-NGF feline IgG1a, Fc variant L309Y (antibody, part only; not given: anti-NGF variable domains, light chain, not shown: another chain or arm of the molecule; small tags and cut ends)
Fc: B1 Fc with K24S, L79Y, Y206S
B4: anti-NGF feline IgG1a, Fc variant S428L, N389c-R (antibody, part only; not given: anti-NGF variable domains, light chain, not shown: another chain or arm of the molecule; small tags and cut ends)
Fc: B1 Fc with K24S, N161R, S200L, Y206S
B5: anti-NGF feline IgG1a, Fc variant S428L, I383L (antibody, part only; not given: anti-NGF variable domains, light chain, not shown: another chain or arm of the molecule; small tags and cut ends)
Fc: B1 Fc with K24S, I153L, S200L, Y206S
B6: anti-NGF feline IgG1a, Fc variant S252R, A378E (antibody, part only; not given: Anti-NGF variable domains, not shown: another chain or arm of the molecule; small tags and cut ends)
Fc: B1 Fc with S22R, K24S, A148E, Y206S
B7: anti-NGF feline IgG1a, Fc variant R392E (antibody, part only; not given: anti-NGF variable domains, light chain, not shown: another chain or arm of the molecule; small tags and cut ends)
Fc: B1 Fc with K24S, R164E, Y206S
B8: anti-NGF feline IgG1a, Fc variant K326D (antibody, part only; not given: anti-NGF variable domains, not shown: another chain or arm of the molecule; small tags and cut ends)
Fc: B1 Fc with K24S, K96D, Y206S
B9: anti-NGF feline IgG1a, Fc variant S428L, S252R (antibody, part only; not given: anti-NGF variable domains, not shown: another chain or arm of the molecule; small tags and cut ends)
Fc: B1 Fc with S22R, K24S, S200L, Y206S
B10: anti-NGF feline IgG1a, Fc variant S252R, L262Q (antibody, part only; not given: anti-NGF variable domains, light chain, not shown: another chain or arm of the molecule; small tags and cut ends)
Fc: B1 Fc with S22R, K24S, L32Q, Y206S
B11: anti-NGF feline IgG1a, Fc variant S434F (antibody, part only; not given: anti-NGF variable domains, light chain, not shown: another chain or arm of the molecule; small tags and cut ends)
Fc: B1 Fc with K24S, Y206F
B12: anti-NGF feline IgG1a, Fc variant T286D (antibody, part only; not given: anti-NGF variable domains, not shown: another chain or arm of the molecule; small tags and cut ends)
Fc: B1 Fc with K24S, T56D, Y206S
B13: anti-NGF feline IgG1a, Fc variant S428L, I377V (antibody, part only; not given: anti-NGF variable domains, not shown: another chain or arm of the molecule; small tags and cut ends)
Fc: B1 Fc with K24S, I147V, S200L, Y206S
B14: anti-NGF feline IgG1a, Fc variant E293H (antibody, part only; not given: anti-NGF variable domains, light chain, not shown: another chain or arm of the molecule; small tags and cut ends)
Fc: B1 Fc with K24S, E63H, Y206S
B15: anti-NGF feline IgG1a, Fc variant T286E (antibody, part only; not given: anti-NGF variable domains, light chain, not shown: another chain or arm of the molecule; small tags and cut ends)
Fc: B1 Fc with K24S, T56E, Y206S
B16: anti-NGF feline IgG1a, Fc variant S428L, D312T (antibody, part only; not given: anti-NGF variable domains, not shown: another chain or arm of the molecule; small tags and cut ends)
Fc: B1 Fc with K24S, D82T, S200L, Y206S
B17: anti-NGF feline IgG1a, Fc variant S434F, E380D (antibody, part only; not given: anti-NGF variable domains, light chain, not shown: another chain or arm of the molecule; small tags and cut ends)
Fc: B1 Fc with K24S, E150D, Y206F
B18: anti-NGF feline IgG1a, Fc variant S434Y, T289K (antibody, part only; not given: Anti-NGF variable domains, not shown: another chain or arm of the molecule; small tags and cut ends)
Fc: B1 Fc with K24S, T59K
B19: anti-NGF feline IgG1a, Fc variant R334D (antibody, part only; not given: anti-NGF variable domains, light chain, not shown: another chain or arm of the molecule; small tags and cut ends)
Fc: B1 Fc with K24S, R104D, Y206S
B20: anti-NGF feline IgG1a, Fc variant S434Y, E293K (antibody, part only; not given: anti-NGF variable domains, light chain, not shown: another chain or arm of the molecule; small tags and cut ends)
Fc: B1 Fc with K24S, E63K
B21: anti-NGF feline IgG1a, Fc variant S428L (antibody, part only; not given: Anti-NGF variable domains, not shown: another chain or arm of the molecule; small tags and cut ends)
Fc: B1 Fc with K24S, S200L, Y206S
B22: anti-NGF feline IgG1a, Fc variant S428L, E380D, S434R (antibody, part only; not given: Anti-NGF variable domains, not shown: another chain or arm of the molecule; small tags and cut ends)
Fc: B1 Fc with K24S, E150D, S200L, Y206R
B23: anti-NGF feline IgG1a, Fc variant S290Y (antibody, part only; not given: anti-NGF variable domains, not shown: another chain or arm of the molecule; small tags and cut ends)
Fc: B1 Fc with K24S, S60Y, Y206S
B24: anti-NGF feline IgG1a, Fc variant S434Y, L309E (antibody, part only; not given: Anti-NGF variable domains, not shown: another chain or arm of the molecule; small tags and cut ends)
Fc: B1 Fc with K24S, L79E

molecular target: feline FcRn (FCN-F82W3, Acrobiosystems) (feline); assay: SPR Carterra, IgG coupled, pH 6.0

Binder	Kd	koff	kon
B1	3.1 nM	0.00504 s⁻¹	1.61e+06 M⁻¹ s⁻¹
B2	3.8 nM	0.012 s⁻¹	3.17e+06 M⁻¹ s⁻¹
B3	196 nM	0.118 s⁻¹	600000 M⁻¹ s⁻¹
B4	9.6 nM	0.0109 s⁻¹	1.14e+06 M⁻¹ s⁻¹
B5	9.9 nM	0.0162 s⁻¹	1.63e+06 M⁻¹ s⁻¹
B6	35.3 nM	0.00927 s⁻¹	262000 M⁻¹ s⁻¹
B7	24.5 nM	0.0324 s⁻¹	1.33e+06 M⁻¹ s⁻¹
B8	136 nM	0.0584 s⁻¹	428000 M⁻¹ s⁻¹
B9	9 nM	0.00873 s⁻¹	974000 M⁻¹ s⁻¹
B10	4.9 nM	0.00795 s⁻¹	1.63e+06 M⁻¹ s⁻¹
B11	4.2 nM	0.00718 s⁻¹	1.73e+06 M⁻¹ s⁻¹
B12	97.4 nM	0.0389 s⁻¹	400000 M⁻¹ s⁻¹
B13	10.8 nM	0.0183 s⁻¹	1.69e+06 M⁻¹ s⁻¹
B14	146 nM	0.0665 s⁻¹	455000 M⁻¹ s⁻¹
B15	93.4 nM	0.0457 s⁻¹	489000 M⁻¹ s⁻¹
B16	11.2 nM	0.0113 s⁻¹	1.01e+06 M⁻¹ s⁻¹
B17	3.3 nM	0.00583 s⁻¹	1.77e+06 M⁻¹ s⁻¹
B18	3.6 nM	0.00559 s⁻¹	1.53e+06 M⁻¹ s⁻¹
B19	133 nM	0.0561 s⁻¹	423000 M⁻¹ s⁻¹
B20	4.1 nM	0.00501 s⁻¹	1.22e+06 M⁻¹ s⁻¹
B21	16.7 nM	0.0241 s⁻¹	1.45e+06 M⁻¹ s⁻¹
B22	8 nM	0.00973 s⁻¹	1.22e+06 M⁻¹ s⁻¹
B23	128 nM	0.0849 s⁻¹	661000 M⁻¹ s⁻¹
B24	4.1 nM	0.00458 s⁻¹	1.13e+06 M⁻¹ s⁻¹
